We go through 6 molecules from US20250339531A1, “DUX4 POLYPEPTIDES AND NUCLEIC ACIDS FOR TREATING INFLAMMATORY AND AUTOIMMUNE CONDITIONS” (Fred Hutchinson Cancer Center, priority 2021, published 2025).

This assay relates to proteins that co-immunoprecipitated with DUX4-CTD constructs expressed in MB135 myoblasts. Put plainly: LC-MS of proteins co-immunoprecipitated with DUX4-CTD (Table 1) and western validation. It is filed as binding, human. Also on record: key to 4. mL1dL2 + Dox + IFNG / 4. + IFNG mix / 4. longCTD + Dox + IFNG / 3. + IFNg + Dox longCTD / 3. + Dox longCTD / 3. + IFNG longCTD: peptide-spectrum matches (PSMs) per protein. The following applies: kind of count not given; for 4. mL1dL2 + Dox + IFNG: LC-MS value per protein co-immunoprecipitated with DUX4-CTD construct mL1dL2 in MB135 myoblasts; for 4. + IFNG mix: LC-MS value per protein co-immunoprecipitated from MB135 myoblasts, + IFNG mix sample (no Dox). The source says:
As an unbiased method to identify proteins that interact with the C-terminal region of DUX4, liquid chromatography mass spectroscopy (LC-MS) was used to identify proteins that co-immunoprecipitated with DUX4-CTD constructs expressed in MB135 myoblasts. In the first experiment, MB135iDUX4-CTD cells were used, either untreated, treated with doxycycline alone, or with both doxycycline and IFNG. In the second experiment, MB135iDUX4-CTD and MB135iDUX4mL1dL2 cells were used, both treated with doxycycline and IFNG, compared to these two cell lines untreated and combined as a control. Proteins with a minimum of 2 peptide spectrum matches (PSMs) in at least one sample that were identified in both experiments were assigned to one of ten categories (see Methods) to separate candidate interactors from other categories that might be co-purified because of obligate interactions (e.g., proteasome or ribosome) or might be less likely to be physiologically relevant (e.g., cytoskeletal proteins). Candidate interactors were then ranked based on the total PSMs for that protein across all samples.
Centrifugation at 2500 rcf at 4° C. for 5 min pelleted the nuclei, supernatant was discarded, and nuclei resuspended in 1 mL IP buffer pH 7.4 (25 mM Tris-HCl pH 7.5, 175 mM NaCl, 1 mM EDTA, 0.2% NP-40, 5% glycerol) and incubated for 1 hour at 4° C. with rotation then spun at 21000 rcf for 10 minutes at 4° C. to pellet insoluble debris. Protein concentration was determined using the Pierce BCA Protein Assay Kit (ThermoFisher, 23225). An equivalent amount of protein per sample was pre-cleared with Dynabeads Protein G (Invitrogen) bound to mouse IgG (Abcam #131368) for 1 hour at 4° C. with rotation. FLAG-tagged constructs were then immunoprecipitated with Dynabeads Protein G beads coupled to mouse anti-FLAG M2 mAb (Sigma F3165) for 3 hours at 4° C. with rotation. Beads were washed 3× with 1 mL IP buffer and eluted by adding 2× NuPage LDS Sample Buffer (Thermo Fisher, diluted from 4× with PBS) to the beads and heating for 10 minutes at 70° C.
For LC-MS, anti-FLAG immunoprecipitation was performed with beads cross-linked to the anti-FLAG antibody and the proteins competitively eluted with FLAG peptide. Eluted protein samples were electrophoresed into a NuPage 4-12% Bis-Tris gel, excised, and processed by the Fred Hutchinson Cancer Research Center Proteomics Core. Samples were reduced, alkylated, digested with trypsin, desalted, and run on the Orbitrap Eclipse Tribid Mass Spectrometer (Thermo Fisher). Proteomics data were analyzed using Proteome Discoverer 2.4 against a Uniprot human database that included common contaminants using Sequest HT and Percolator for scoring. […] Proteins that were identified in at least one sample from both independent experiments with at least 2 PSMs in one sample were assigned to one of ten categories: 1, candidates; 2, cytoskeletal associated; 3, cytoskeletal; 4, ribosome/translation associated; 5, proteasome associated; 6, membrane or extracellular; ER, golgi, or vesicle associated; 8, lipid metabolism; 9, chaperones; 10, nuclear import or nuclear membrane associated. The proteins in category 1 were further investigated for interactions with DUX4.

B1: EEF1D (protein)
chain: MEAPLGSILSPCPGRAATGRAGTGRVGTGLRPPAVLQLCPLLAFYRCVRKMRSGKASCTLETVWEDKHKYEEAERRFYEHEATQAAASAQQLPAEGPAMNGPGQDDPEDADEAEAPDGGSRRDPRKSQDSRKPLQKKRKRSPKSGLGPADLALLGLSAERVWLDKSLFDQAESSYRQKLADVAAQAAWPPALAPWGLCTHGNQVACHHVTWGIWVNKSSFDQAERAFVEWSQALLLAPDGSRRQGTPNTGQQVAVPDLAHQPSPPVNGQPPLGSLQALVREVWLEKPRYDAAERGFYEALFDGHPPGKVRLQERAGLAEGARRGRRDRRGRNILGNKRAGLRRADGEAPSALPYCYFLQKDAEAPWLSKPAYDSAECRHHAAEALRVAWCLEAASLSHRPGPRSGLSVSSLRPNRKMATNFLAHEKIWFDKFKYDDAERRFYEQMNGPVAGASRQENGASVILRDIARARENIQKSLAGSSGPGASSGTSGDHGELVVRIASLEVENQSLRGVVQELQQAISKLEARLNVLEKSSPGHRATAPQTQHVSPMRQVEPPAKKPATPAEDDEDDDIDLFGSDNEEEDKEAAQLREERLRQYAEKKAKKPALVAKSSILLDVKPWDDETDMAQLEACVRSIQLDGLVWGASKLVPVGYGIRKLQIQCVVEDDKVGTDLLEEEITKFEEHVQSVDIAAFNKI
Turning to B1, the “4. mL1dL2 + Dox + IFNG” value came to 7.

B2: KRT71 (protein)
chain: MSRQFTCKSGAAAKGGFSGCSAVLSGGSSSSFRAGSKGLSGGFGSRSLYSLGGVRSLNVASGSGKSGGYGFGRGRASGFAGSMFGSVALGPVCPTVCPPGGIHQVTVNESLLAPLNVELDPEIQKVRAQEREQIKALNNKFASFIDKVRFLEQQNQVLETKWELLQQLDLNNCKNNLEPILEGYISNLRKQLETLSGDRVRLDSELRNVRDVVEDYKKRYEEEINKRTAAENEFVLLKKDVDAAYANKVELQAKVESMDQEIKFFRCLFEAEITQIQSHISDMSVILSMDNNRNLDLDSIIDEVRTQYEEIALKSKAEAEALYQTKFQELQLAAGRHGDDLKNTKNEISELTRLIQRIRSEIENVKKQASNLETAIADAEQRGDNALKDARAKLDELEGALHQAKEELARMLREYQELMSLKLALDMEIATYRKLLESEECRMSGEFPSPVSISIISSTSGGSVYGFRPSMVSGGYVANSSNCISGVCSVRGGEGRSRGSANDYKDTLGKGSSLSAPSKKTSR
B2: the “4. mL1dL2 + Dox + IFNG” value is reported as 21.

B3: EEF1A1 (protein)
chain: GKEKTHINIVVIGHVDSGKSTTTGHLIYKCGGIDKRTIEKFEKEAAEMGKGSFKYAWVLDKLKAERERGITIDISLWKFETSKYYVTIIDAPGHRDFIKNMITGTSQADCAVLIVAAGVGEFEAGISKNGQTREHALLAYTLGVKQLIVGVNKMDSTEPPYSQKRYEEIVKEVSTYIKKIGYNPDTVAFVPISGWNGDNMLEPSANMPWFKGWKVTRKDGNASGTTLLEALDCILPPTRPTDKPLRLPLQDVYKIGGIGTVPVGRVETGVLKPGMVVTFAPVNVTTEVKSVEMHHEALSEALPGDNVGFNVKNVSVKDVRRGNVAGDSKNDPPMEAAGFTAQVIILNHPGQISAGYAPVLDCHTAHIACKFAELKEKIDRRSGKKLEDGPKFLKSGDAAIVDMVPGKPMCVESFSDYPPLGRFAVRDMRQTVAVGVIKAVDKKAAGAGKVTKSAQKAQKAK
With B3, the “4. + IFNG mix” value worked out at 4 and the “4. mL1dL2 + Dox + IFNG” value came out at 3.

B4: HNRNPM (protein)
chain: AAGVEAAAEVAATEIKMEEESGAPGVPSGNGAPGPKGEGERPAQNEKRKEKNIKRGGNRFEPYANPTKRYRAFITNIPFDVKWQSLKDLVKEKVGEVTYVELLMDAEGKSRGCAVVEFKMEESMKKAAEVLNKHSLSGRPLKVKEDPDGEHARRAMQKVMATTGGMGMGPGGPGMITIPPSILNNPNIPNEIIHALQAGRLGSTVFVANLDYKVGWKKLKEVFSMAGVVVRADILEDKDGKSRGIGTVTFEQSIEAVQAISMFNGQLLFDRPMHVKMDERALPKGDFFPPERPQQLPHGLGGIGMGLGPGGQPIDANHLNKGIGMGNIGPAGMGMEGIGFGINKMGGMEGPFGGGMENMGRFGSGMNMGRINEILSNALKRGEIIAKQGGGGGGGSVPGIERMGPGIDRLGGAGMERMGAGLGHGMDRVGSEIERMGLVMDRMGSVERMGSGIERMGPLGLDHMASSIERMGQTMERIGSGVERMGAGMGFGLERMAAPIDRVGQTIERMGSGVERMGPAIERMGLSMERMVPAGMGAGLERMGPVMDRMATGLERMGANNLERMGLERMGANSLERMGLERMGANSLERMGPAMGPALGAGIERMGLAMGGGGGASFDRAIEMERGNFGGSFAGSFGGAGGHAPGVARKACQIFVRNLPFDFTWKMLKDKFNECGHVLYADIKMENGKSKGCGVVKFESPEVAERACRMMNGMKLSGREIDVRIDRNA
Take B4: the “4. mL1dL2 + Dox + IFNG” value is recorded as 3.

B5: RRBP1 (protein)
chain: MDIYDTQTLGVVVFGGFMVVSAIGIFLVSTFSMKETSYEEALANQRKEMAKTHHQKVEKKKKEKTVEKKGKTKKKEEKPNGKIPDHDPAPNVTVLLREPVRAPAVAVAPTPVQPPIIVAPVATVPAMPQEKLASSPKDKKKKEKKVAKVEPAVSSVVNSIQVLTSKAAILETAPKEVPMVVVPPVGAKGNTPATGTTQGKKAEGTQNQSKKAEGAPNQGRKAEGTPNQGKKTEGTPNQGKKAEGTPNQGKKAEGTPNQGKKAEGAQNQGKKVDTTPNQGKKVEGAPTQGRKAEGAQNQAKKVEGAQNQGKKAEGAQNQGKKGEGAQNQGKKAEGAQNQGKKAEGAQNQGKKAEGAQNQGKKAEGAQNQGKKAEGAQNQGKKAEGAQNQGKKVEGAQNQGKKAEGAQNQGKKAEGAQNQGKKAEGAQNQGKKAEGAQNQGKKAEGAQNQGKKAEGAQNQGKKAEGAQNQGKKVEGAQNQGKKAEGAQNQGKKAEGAQNQGKKAEGAQNQGQKGEGAQNQGKKTEGAQGKKAERSPNQGKKGEGAPIQGKKADSVANQGTKVEGITNQGKKAEGSPSEGKKAEGSPNQGKKADAAANQGKKTESASVQGRNTDVAQSPEAPKQEAPAKKKSGSKKKGEPGPPDADGPLYLPYKTLVSTVGSMVFNEGEAQRLIEILSEKAGIIQDTWHKATQKGDPVAILKRQLEEKEKLLATEQEDAAVAKSKLRELNKEMAAEKAKAAAGEAKVKKQLVAREQEITAVQARMQASYREHVKEVQQLQGKIRTLQEQLENGPNTQLARLQQENSILRDALNQATSQVESKQNAELAKLRQELSKVSKELVEKSEAVRQDEQQRKALEAKAAAFEKQVLQLQASHRESEEALQKRLDEVSRELCHTQSSHASLRADAEKAQEQQQQMAELHSKLQSSEAEVRSKCEELSGLHGQLQEARAENSQLTERIRSIEALLEAGQARDAQDVQASQAEADQQQTRLKELESQVSGLEKEAIELREAVEQQKVKNNDLREKNWKAMEALATAEQACKEKLLSLTQAKEESEKQLCLIEAQTMEALLALLPELSVLAQQNYTEWLQDLKEKGPTLLKHPPAPAEPSSDLASKLREAEETQSTLQAECDQYRSILAETEGMLRDLQKSVEEEEQVWRAKVGAAEEELQKSRVTVKHLEEIVEKLKGELESSDQVREHTSHLEAELEKHMAAASAECQNYAKEVAGLRQLLLESQSQLDAAKSEAQKQSDELALVRQQLSEMKSHVEDGDIAGAPASSPEAPPAEQDPVQLKTQLEWTEAILEDEQTQRQKLTAEFEEAQTSACRLQEELEKLRTAGPLESSETEEASQLKERLEKEKKLTSDLGRAATRLQELLKTTQEQLAREKDTVKKLQEQLEKAEDGSSSKEGTSV
As for B5, the “4. + IFNG mix” value was found to be 12 and the “4. mL1dL2 + Dox + IFNG” value was 4.

B6: MYL12A (protein)
chain: MDLTTTMSSKRTKTKTKKRPQRATSNVFAMFDQSQIQEFKEAFNMIDQNRDGFIDKEDLHDMLASLGKNPTDEYLDAMMNEAPGPINFTMFLTMFGEKLNGTDPEDVIRNAFACFDEEATGTIQEDYLRELLTTMGDRFTDEEVDELYREAPIDKKGNFNYIEFTRILKHGAKDKDD
In the case of B6, the “4. + IFNG mix” value was 9 and the “4. mL1dL2 + Dox + IFNG” value is reported as 30.
